We go through seven molecules from patent publication US20230391854A1 (Innovent, published 2023).

B1: P15-16 (antibody, V domains shown)
VH: QVQLVESGGGLVQPGRSLTLSCAASGFTFDDYAMHWVRQAPGKGLEWVSGISWNSGTIDYADSVKGRFTISRDNAKNSLYLQMNSLRAEDTALYYCATLPRERAYSGYDRIFYTIDVWGQGTTVTVSS
VL: not shown
notes: also called candidate antibody molecule P15-16
B2: P10-20 (antibody, V domains shown)
VH: QVQLVESGGGLVKPGGSLRLSCAASGFTFSDYYMSWIRQAPGKGLEWVSYISISSTYTNYADSVKGRFTISRDNAKNSLYLQMNSLRAEDTAVYYCVIAAAGKGHYYYGMDVWGQGTTVTVSS
VL: not shown
notes: also called candidate antibody molecule P10-20
B3: P14-44 (antibody, V domains shown)
VH: QVQLVQSGAEVKKPGASVKVSCKASGYIFTSYSMHWVRQAPGQGLEWMGTIKPSDDSTNYAQKFQGRVSMTRDTSTSTVYMELSSLRYEDTAVYYCAREARGYYDRSGYYHPGYFDYWGQGTLVTVSS
VL: QSVLTQPASVSGSPGQSITISCTGTSSDVGGYNFVSWYQQHPGKAPKLMIYEVSDRPSGVSSRFSGSKSGNTASLTISGLQAEDEADYYCFSYTTSTTWVFGGGTKLTVL
notes: also called candidate antibody molecule P14-44
B4: P14-37 (antibody, V domains shown)
VH: EVQLVESGGGLVKPGGSLRLSCAASGFTFSNAWMSWVRQAPGKGLEWVGRIKRNSDGGTTDHAAPVTGRFIISRDDSKNTLYLQMNSLRTEDTAVYYCTTDLDTVVRRVVITDHDAFDIWGQGTMVTVSS
VL: DIQMTQSPSSLSASVGDRVTITCRASQSISSFLNWYQQKAGKAPKLLIYAASSLQSGVPSRFSGSGSGTDFSLTISNLQPEDFATYYCQQSYSTPSITFGQGTRLEIK
notes: also called candidate antibody molecule P14-37
B5: P5-22 (antibody, V domains shown)
VH: EVQLVESGGGLVKPGGSLRLSCAASGFTFRDYDIIWIRQAPGKGLEWVSYISRSGSTIYYSDSVRGRFTISRDNAKNSVYLQMNSLRAEDTAVYYCARDFGFEGPRMDVWGQGTTVTVSS
VL: DIQMTQSPSSLSASVGDRVTITCQASQDIKNYLNWYQQKPGKAPKLLIYDASNLETGVPSRFSGSGSGTDFTFTISSLQPEDIATYYCQQFDNLPITFGQGTRLEIK
notes: also called candidate antibody molecule P5-22
B6: P3-11 (antibody, V domains shown)
VH: QVQLVESGGGLVQPGGSLRLSCAASGITVSSNYMSWVRQAPGKGLEWVSVIYSGGSTFYADPVKGRLTISRDNSKNTLYLQMNSVRVEDTAVYYCARGEGWELPFDYWGQGALVTVSS
VL: QSALTQPPSASGSPGQSVTISCTGTSSDVGGNKYVSWYQQHPGKAPKLIIYEVSKRPSGVPDRFSGSKSGNTASLTVSGLQAEDEADYHCSSYAGSNNLVFGGGTKLTVL
notes: also called candidate antibody molecule P3-11
B7: P23-29 (antibody, V domains shown)
VH: QVQLQESGPGLVKPSETLSLTCTVSGDSISSSTYYWGWIRQPPGKGLEWIGSMYYGRSTYYNPSLKSRVTVSVDTSKNQLSLKVSSVTAADTAVYYCARHLGGVDYWGQGTLVTVSS
VL: DIQMTQSPSSLSASVGDRVTITCRASQGISNSLAWYQQEPGKAPKLLLYAASTLESGVPSRFSGSGSGADSTLTISSLQPEDFATYYCQQYYSASALTFGGGTKVEIK
notes: also called candidate antibody molecule P23-29

The first test has as its target Biotin-ncov RBD (KACTUS, COV-VM4BDB) (SARS-CoV-2, UniProt P0DTC2 319-537). As to the kind of experiment: ELISA blocking assay: antibody titrated from 900 nM, blocks biotin-RBD (200 ng/mL) binding to coated ACE2-Fc.
Regarding B1, the IC50 turned out to be 1.39 nM.

The molecule B2 registered an IC50 of 0.957 nM.

Take B3: the IC50 is 0.863 nM.

As for B4, the IC50 is 1.14 nM.

For B5, the 50% inhibitory concentration (IC50) came to 1.08 nM.

For B6, the half-maximal inhibitory concentration (IC50) turned out to be 1.1 nM.

On to B7, for which the 50% inhibitory concentration (IC50) turned out to be 1.2 nM.

In another test the target is SARS-CoV-2 euvirus S protein (SARS-CoV-2, UniProt P0DTC2 14-1273). The test is described as follows: cell-based or functional assay.
Take B2: the “EC50, neutralization of SARS-CoV-2 euvirus infection of VERO-E6 cells (CPE, day 4)” value (shortened to “EC50, neutralization”) was approximately 0.0752 µg/mL.

As for B3, the “EC50, neutralization” value is 0.708 µg/mL.

Turning to B5, the “EC50, neutralization” value was 0.00657 µg/mL.

Regarding B6, the “EC50, neutralization” value turned out to be 0.195 µg/mL.

For the molecule B7, the “EC50, neutralization” value worked out at 0.0488 µg/mL.
